Assay results: paper PMC12170906

Target: RNAP-SigA holoenzyme (Mycobacterium tuberculosis, UniProt P9WGZ1;P9WGY9;P9WGY7;P9WGI1 1-347;1-1178;1-1316;1-528)
Test: EMSA; 100-200 nM RNAP, heparin
Conditions: protein: recombinant; chain copies: 2;1;1;1; blunt

RNAP-SigA holoenzyme, sequence (P9WGZ1 whole entry, chain 1 of 4): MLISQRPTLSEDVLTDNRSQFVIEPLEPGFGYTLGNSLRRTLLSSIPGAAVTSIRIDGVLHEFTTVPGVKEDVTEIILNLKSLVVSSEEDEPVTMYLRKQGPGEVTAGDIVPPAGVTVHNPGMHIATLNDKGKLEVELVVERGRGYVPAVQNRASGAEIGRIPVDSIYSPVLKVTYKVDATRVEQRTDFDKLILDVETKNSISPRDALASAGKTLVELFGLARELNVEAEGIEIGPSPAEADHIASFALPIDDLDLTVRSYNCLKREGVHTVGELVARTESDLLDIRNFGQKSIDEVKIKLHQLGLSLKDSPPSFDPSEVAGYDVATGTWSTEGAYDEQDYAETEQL
RNAP-SigA holoenzyme, sequence (P9WGY9 whole entry, chain 2 of 4): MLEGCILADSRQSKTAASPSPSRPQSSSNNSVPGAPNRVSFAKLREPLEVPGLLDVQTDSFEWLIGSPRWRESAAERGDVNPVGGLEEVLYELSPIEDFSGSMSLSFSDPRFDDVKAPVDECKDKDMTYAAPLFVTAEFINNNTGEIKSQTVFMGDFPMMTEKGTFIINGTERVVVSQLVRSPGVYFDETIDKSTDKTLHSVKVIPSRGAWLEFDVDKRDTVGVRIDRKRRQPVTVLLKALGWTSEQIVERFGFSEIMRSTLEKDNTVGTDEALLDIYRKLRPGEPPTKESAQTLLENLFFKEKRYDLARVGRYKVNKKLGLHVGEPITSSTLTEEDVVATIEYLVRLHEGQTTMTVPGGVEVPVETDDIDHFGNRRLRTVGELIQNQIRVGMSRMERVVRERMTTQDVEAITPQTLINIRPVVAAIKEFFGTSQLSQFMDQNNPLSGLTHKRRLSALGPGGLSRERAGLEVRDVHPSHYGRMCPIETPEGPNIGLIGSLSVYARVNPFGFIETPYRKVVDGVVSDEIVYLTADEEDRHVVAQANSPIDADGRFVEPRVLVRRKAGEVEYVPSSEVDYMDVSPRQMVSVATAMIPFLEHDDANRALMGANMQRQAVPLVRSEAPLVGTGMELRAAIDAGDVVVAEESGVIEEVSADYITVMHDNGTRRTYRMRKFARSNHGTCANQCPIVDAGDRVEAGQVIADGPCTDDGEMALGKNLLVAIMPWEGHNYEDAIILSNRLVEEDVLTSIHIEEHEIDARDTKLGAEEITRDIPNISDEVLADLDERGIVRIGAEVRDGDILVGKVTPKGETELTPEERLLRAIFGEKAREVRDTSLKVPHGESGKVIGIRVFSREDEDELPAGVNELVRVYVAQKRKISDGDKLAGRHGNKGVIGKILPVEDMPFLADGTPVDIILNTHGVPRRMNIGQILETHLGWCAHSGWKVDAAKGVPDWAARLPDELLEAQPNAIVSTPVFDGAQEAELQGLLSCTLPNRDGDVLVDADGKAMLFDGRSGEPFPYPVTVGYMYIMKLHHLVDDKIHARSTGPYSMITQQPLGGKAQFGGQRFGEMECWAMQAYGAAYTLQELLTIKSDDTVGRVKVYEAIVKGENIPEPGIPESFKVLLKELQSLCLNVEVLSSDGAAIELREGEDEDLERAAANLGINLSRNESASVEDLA
RNAP-SigA holoenzyme, sequence (P9WGY7 whole entry, chain 3 of 4): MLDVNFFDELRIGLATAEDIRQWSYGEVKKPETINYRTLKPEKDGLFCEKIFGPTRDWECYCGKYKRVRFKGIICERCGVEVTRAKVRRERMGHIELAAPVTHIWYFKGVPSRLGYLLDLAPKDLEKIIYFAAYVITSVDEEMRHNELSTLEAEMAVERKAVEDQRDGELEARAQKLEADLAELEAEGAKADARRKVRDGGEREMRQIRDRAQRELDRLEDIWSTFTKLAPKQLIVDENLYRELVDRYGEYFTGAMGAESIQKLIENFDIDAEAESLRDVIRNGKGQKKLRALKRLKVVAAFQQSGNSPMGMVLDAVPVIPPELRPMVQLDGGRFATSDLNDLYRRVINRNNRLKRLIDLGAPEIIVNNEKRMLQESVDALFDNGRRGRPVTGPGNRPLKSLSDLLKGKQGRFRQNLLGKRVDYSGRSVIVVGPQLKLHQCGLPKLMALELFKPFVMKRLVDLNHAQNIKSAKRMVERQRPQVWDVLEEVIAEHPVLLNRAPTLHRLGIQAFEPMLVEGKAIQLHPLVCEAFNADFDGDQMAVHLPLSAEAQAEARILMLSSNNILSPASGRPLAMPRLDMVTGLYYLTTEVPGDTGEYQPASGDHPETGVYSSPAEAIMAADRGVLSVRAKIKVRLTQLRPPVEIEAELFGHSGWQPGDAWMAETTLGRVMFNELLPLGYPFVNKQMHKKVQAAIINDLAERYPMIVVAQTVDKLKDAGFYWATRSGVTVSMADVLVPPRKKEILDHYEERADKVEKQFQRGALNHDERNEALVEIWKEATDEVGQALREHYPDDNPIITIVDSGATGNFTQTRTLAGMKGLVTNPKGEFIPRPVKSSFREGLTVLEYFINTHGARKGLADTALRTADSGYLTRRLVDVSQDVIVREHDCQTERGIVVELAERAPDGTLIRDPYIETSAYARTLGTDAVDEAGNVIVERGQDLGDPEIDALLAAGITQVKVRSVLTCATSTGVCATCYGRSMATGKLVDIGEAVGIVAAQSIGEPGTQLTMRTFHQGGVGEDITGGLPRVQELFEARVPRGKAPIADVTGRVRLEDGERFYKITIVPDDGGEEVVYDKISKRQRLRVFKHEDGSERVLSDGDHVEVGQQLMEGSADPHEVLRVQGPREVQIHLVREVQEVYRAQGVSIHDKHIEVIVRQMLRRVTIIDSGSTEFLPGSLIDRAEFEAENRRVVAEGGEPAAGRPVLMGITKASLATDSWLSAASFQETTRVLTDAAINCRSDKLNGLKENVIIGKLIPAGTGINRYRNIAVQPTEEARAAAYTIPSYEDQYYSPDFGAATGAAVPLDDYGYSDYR
RNAP-SigA holoenzyme, sequence (P9WGI1 whole entry, chain 4 of 4): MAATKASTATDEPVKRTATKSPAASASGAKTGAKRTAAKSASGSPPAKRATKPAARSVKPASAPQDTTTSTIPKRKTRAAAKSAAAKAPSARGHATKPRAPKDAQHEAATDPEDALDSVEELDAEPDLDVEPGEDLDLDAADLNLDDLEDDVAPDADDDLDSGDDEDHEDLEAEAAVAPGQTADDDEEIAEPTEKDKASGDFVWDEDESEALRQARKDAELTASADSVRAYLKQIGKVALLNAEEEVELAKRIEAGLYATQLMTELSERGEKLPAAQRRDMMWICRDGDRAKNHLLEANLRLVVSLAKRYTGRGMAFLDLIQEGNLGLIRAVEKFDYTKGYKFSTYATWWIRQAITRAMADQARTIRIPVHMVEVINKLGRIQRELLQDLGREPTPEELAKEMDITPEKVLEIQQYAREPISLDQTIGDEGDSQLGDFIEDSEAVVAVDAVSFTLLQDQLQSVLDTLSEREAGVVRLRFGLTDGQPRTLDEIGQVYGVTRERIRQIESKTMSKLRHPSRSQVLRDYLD

B1: rrnAP3 promoter (dsDNA)
DNA 1: CTATGGATGACCGAACCTGGTCTTGACTCCATTGCCGGATTTGTATTAGACTGGCAGGGTCGCCCCGAAGCGGGCGGAAACAAGCAAGCGTGTTGTTTGAGAACTC
DNA 2: GAGTTCTCAAACAACACGCTTGCTTGTTTCCGCCCGCTTCGGGGCGACCCTGCCAGTCTAATACAAATCCGGCAATGGAGTCAAGACCAGGTTCGGTCATCCATAG
binding result: binds
